From PMC3131266

Tests used:
[1] = target: glycocalicin (Homo sapiens) (UniProt P07359); conditions: cited from earlier work
[2] = target: glycocalicin, the carbohydrate-rich extracellular portion of the platelet membrane glycoprotein GPIbα (human) (UniProt P07359); experiment: binding of whole bacteria to immobilised protein in microtiter wells; as a1, bacteria diluted into DPBS containing 44 mM α-2,3-sialyl (1-thioethyl)galactose, pH 7.5, compared with DPBS alone
Sequence of glycocalicin, the carbohydrate-rich extracellular portion of the platelet membrane glycoprotein GPIbα (human) (P07359 17-531): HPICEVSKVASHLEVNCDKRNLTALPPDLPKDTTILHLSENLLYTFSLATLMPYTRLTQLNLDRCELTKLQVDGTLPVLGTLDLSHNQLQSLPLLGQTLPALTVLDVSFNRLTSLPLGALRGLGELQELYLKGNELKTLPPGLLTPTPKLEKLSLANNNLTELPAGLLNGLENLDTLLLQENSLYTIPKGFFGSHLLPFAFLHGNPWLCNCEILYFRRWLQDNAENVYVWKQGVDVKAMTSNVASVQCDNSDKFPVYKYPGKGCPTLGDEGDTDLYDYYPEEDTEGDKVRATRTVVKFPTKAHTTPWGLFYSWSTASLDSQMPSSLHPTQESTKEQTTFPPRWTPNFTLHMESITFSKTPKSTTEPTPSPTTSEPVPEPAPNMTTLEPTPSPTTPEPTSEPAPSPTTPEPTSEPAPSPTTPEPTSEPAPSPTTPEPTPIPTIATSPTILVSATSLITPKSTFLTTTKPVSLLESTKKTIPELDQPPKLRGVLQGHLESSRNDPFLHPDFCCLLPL

Sequence of GspB of Streptococcus gordonii strain M99, wild type, on the bacterial cell surface, Q939N5 86-3041 (natural protein; carries sialyl-T antigen carbohydrates (sites not stated)) (Q939N5 86-3041): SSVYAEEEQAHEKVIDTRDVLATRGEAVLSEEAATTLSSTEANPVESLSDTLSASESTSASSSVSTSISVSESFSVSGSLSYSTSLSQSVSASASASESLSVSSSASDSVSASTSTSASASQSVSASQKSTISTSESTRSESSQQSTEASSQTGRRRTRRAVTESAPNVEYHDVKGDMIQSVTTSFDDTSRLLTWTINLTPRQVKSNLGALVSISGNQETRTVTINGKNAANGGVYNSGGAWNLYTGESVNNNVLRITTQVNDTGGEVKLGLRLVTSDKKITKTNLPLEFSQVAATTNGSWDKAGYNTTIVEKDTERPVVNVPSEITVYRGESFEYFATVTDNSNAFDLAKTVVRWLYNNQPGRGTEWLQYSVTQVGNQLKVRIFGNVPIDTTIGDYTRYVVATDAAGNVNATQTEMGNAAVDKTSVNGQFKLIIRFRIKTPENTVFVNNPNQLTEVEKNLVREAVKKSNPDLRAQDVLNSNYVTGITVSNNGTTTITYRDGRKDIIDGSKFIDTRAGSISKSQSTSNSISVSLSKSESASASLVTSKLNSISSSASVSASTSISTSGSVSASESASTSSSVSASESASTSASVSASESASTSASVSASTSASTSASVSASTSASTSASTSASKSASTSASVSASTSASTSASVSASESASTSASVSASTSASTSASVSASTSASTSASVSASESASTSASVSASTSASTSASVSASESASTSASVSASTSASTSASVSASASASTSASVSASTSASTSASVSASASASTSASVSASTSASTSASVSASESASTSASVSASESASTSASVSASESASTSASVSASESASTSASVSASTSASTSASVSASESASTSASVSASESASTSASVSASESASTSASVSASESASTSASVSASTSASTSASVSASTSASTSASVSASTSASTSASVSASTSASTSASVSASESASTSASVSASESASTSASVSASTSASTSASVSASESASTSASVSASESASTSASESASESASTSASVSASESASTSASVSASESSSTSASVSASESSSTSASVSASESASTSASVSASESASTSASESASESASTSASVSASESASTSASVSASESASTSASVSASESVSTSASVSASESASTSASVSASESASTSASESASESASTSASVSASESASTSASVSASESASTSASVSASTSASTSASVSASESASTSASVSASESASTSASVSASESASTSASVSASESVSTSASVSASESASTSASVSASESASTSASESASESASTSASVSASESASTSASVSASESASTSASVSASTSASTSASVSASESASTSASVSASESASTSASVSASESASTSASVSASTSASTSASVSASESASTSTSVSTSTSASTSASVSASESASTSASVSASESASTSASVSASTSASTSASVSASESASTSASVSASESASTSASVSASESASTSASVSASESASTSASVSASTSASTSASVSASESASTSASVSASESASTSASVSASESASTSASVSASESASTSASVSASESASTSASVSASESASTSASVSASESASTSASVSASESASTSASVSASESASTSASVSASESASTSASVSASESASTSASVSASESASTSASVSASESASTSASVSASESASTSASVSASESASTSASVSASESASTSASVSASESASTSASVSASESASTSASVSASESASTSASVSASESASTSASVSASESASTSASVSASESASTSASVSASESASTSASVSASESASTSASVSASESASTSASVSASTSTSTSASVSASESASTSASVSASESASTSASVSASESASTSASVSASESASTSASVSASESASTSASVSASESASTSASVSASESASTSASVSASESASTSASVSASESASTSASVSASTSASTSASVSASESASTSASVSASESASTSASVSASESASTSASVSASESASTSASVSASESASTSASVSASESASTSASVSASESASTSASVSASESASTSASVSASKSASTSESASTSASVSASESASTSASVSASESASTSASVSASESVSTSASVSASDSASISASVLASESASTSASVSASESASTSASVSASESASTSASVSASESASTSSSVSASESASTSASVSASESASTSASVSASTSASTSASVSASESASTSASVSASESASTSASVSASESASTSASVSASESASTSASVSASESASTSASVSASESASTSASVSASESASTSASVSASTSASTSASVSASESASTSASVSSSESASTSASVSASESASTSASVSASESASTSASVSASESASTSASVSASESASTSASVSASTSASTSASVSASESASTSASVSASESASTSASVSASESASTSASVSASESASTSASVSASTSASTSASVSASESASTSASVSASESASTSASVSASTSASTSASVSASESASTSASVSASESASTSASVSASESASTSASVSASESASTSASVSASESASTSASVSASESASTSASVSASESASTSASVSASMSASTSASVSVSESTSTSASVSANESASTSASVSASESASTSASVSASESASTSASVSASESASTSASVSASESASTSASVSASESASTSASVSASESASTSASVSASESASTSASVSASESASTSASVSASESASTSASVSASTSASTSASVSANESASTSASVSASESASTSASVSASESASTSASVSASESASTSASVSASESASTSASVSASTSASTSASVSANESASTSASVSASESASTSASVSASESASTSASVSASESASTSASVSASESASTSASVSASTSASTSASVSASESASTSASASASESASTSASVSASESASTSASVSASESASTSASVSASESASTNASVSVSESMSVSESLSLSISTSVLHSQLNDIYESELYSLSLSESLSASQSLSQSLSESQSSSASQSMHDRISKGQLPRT
Sequence of glycocalicin (Homo sapiens) (P07359 17-506): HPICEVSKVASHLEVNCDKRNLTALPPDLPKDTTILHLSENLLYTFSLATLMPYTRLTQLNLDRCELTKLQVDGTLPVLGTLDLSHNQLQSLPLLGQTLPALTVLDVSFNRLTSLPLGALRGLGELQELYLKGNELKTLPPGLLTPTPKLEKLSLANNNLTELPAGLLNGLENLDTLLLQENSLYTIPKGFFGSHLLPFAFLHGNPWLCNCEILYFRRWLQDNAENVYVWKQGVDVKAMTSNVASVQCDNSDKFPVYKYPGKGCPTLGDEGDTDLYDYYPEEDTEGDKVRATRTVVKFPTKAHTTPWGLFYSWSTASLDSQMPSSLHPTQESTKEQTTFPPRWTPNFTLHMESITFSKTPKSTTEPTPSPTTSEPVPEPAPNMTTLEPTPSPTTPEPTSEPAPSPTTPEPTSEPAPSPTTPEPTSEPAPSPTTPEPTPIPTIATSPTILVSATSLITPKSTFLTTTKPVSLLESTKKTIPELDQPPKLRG

For GspB (from UniProt Q939N5), the Kd [1] is listed as 0.0238 µM.

“GspB of Streptococcus gordonii strain M99, wild type, on the bacterial cell surface, Q939N5 86-3041 (natural protein; carries sialyl-T antigen carbohydrates (sites not stated))” showed a percent reduction of binding by 44 mM α-2,3-sialyl (1-thioethyl)galactose [2] of 90%.
